Entries after “also recorded” stand apart in the source; their conditions may differ. Read-outs that look alike come from different tables or passages of the source.
What was measured:
[1] = assay type: physicochemical; details: PBS pH 7.4, 10% DMSO, 37 °C; for intact (%) under 10 mM GSH at 2 μM: 520 nm HPLC–MS; for intact (%) under 10 mM GSH: 520 nm HPLC–MS (PyTz UV–Vis)
Experimental: All tetrazine compounds were diluted to a concentration of 50 μM or 2 μM using PBS (10% DMSO, pH 7.4). A stock solution of GSH (400 mM in PBS) was then added to achieve a final concentration of 10 mM. The mixture was homogenized and incubated at 37 °C for 12 h. The stability of the compounds (including all peptide conjugates and PmTz) was assessed by measuring the decrease in peak area at 520 nm (with the initial peak area at 0 min defined as 100%). This measurement was monitored by HPLC–MS. Similarly, the stability of PyTz was determined by monitoring the decrease in peak intensity at 520 nm using UV–Vis. Statistical analysis was performed on data from three replicates to calculate the mean and standard deviation. […]
Response 1: We appreciate your comment. We conducted stability tests on RGD-Dox and RGD-SN-38 in 10 mM GSH at a concentration of 2 μM, which is below the critical micelle concentrations. After incubating at 37 °C for 12 hours, we observed that 95% of RGD-Dox and 85% of RGD-SN-38 remained intact. This stability is slightly less than […]
the observed stability is intrinsic to the peptide-drug conjugates, with a slight enhancement due to micelle […]
concentrations, after 12 hours of incubation at 37 °C (Figure S46). […]
intrinsic to the PDCs, with a slight enhancement by micelle formation.
Details of these experiments have been included in the Supplementary Information (Page S42), as outlined below:
RGD-Dox and RGD-SN-38 were diluted to a concentration of 2 μM using PBS (10% DMSO, pH 7.4). A stock solution of GSH (400 mM in PBS) was then added to achieve a final concentration of 10 mM. The mixture was homogenized and incubated at 37 °C for 12 hours. Stability was assessed by measuring the decrease in peak area at 520 nm (with the initial peak area at 0 min defined as 100%). This measurement was monitored by HPLC–MS. Statistical analysis was performed on data from three replicates to calculate the mean and standard deviation.

Stability in FBS (serum) = assay type: in vitro ADME; details: for remaining at 1 h, 50 μM / remaining at 2 h, 50 μM / remaining at 3 h, 50 μM / RGD-Dox (%): stability in the FBS; for remaining at 1 h, 50 μM / remaining at 2 h, 50 μM / remaining at 3 h, 50 μM: read-out: RGD-Dox (%)
Experimental: The results are shown as the mean ± SD. Source data are provided as a Source Data file. […]
Supplementary Fig. 48. Stability of RGD-Dox in the 50% FBS. RGD-Dox was diluted to a concentration of 50 μM
using 50% FBS/PBS (10% DMSO). The mixture was homogenized and incubated at 37 °C. The stability of RGD-Dox
was assessed by measuring the decrease in peak area at 520 nm (with the initial peak area at 0 min defined as 100%).
This measurement was monitored by HPLC–MS. Independent measurements were taken three times. The results are
shown as the mean ± SD. Source data are provided as a Source Data file. […]
Source data are provided as a Source Data file.

B16F10 cells [2] = assay: Cell uptake by fluorescence imaging, B16F10; assay type: cell-based, Mouse; details: B16F10 pre-treated with 50-fold excess of unmodified RGD, 10 μM, 2 h
Experimental: B16F10 cells were cultured for 48 h. […]
12.1 Calculation of the fluorescence coefficient (F c)
The Fc was the radio calculated
12.2 Uptake calculation of the B16F10 cells […]
deviation were analyzed using Origin Pro 2015.
B16F10 cells, characterized by α vβ3
Following the incubation period, the
Subsequently, the cells were trypsinized and underwent three PBS rinses.
12 .4 Cell uptake analysis by fluorescence imaging

B16F10 cells [3] = assay: Cellular uptake of RGD-Dox over various time intervals using flow cytometry; assay type: cell-based, Mouse
Experimental: concentration at the indicated time .
10. In vivo release evaluation of the RGD-FL
Subsequently, the cells were stained […]
laser scanning microscope. […]
μM) for 60 min. […] Blocking studies were performed by
Cells were pre-treated with 18- […]
specific times using a confocal laser scanning microscope.
11. Cell viability assays
After the incubation period, the
Subsequently, the cells were trypsinized and underwent three rinses with PBS.

Question: Which “intact (%) under 10 mM GSH at 2 μM” value ([1]; 1 h, Data 1, 2 μM (below CMC)) does the source give for `COc1cccc2c1C(=O)c1c(O)c3c(c(O)c1C2=O)C[C@@](O)(C(=O)CO)C[C@@H]3O[C@H]1C[C@H](NC(=O)OCc2nnc(CCSC[C@@H]3NC(=O)[C@@H](Cc4ccc(O)cc4)NC(=O)[C@H](CC(=O)O)NC(=O)CNC(=O)[C@H](CCCNC(=N)N)NC3=O)nn2)[C@H](O)[C@H](C)O1` [RGD-Dox] here?
Answer: The value was 98%.

Question: What about the “intact (%) under 10 mM GSH” value ([1]; 1 h, Data 1, 50 μM) of the same molecule?
Answer: Its value is 98.414%.

Question: What about the “intact (%) under 10 mM GSH at 2 μM” value ([1]; 1 h, Data 2, 2 μM (below CMC)) of the same molecule?
Answer: The value was 96.5%.

Question: What about the “intact (%) under 10 mM GSH” value ([1]; 1 h, Data 2, 50 μM) of the same molecule?
Answer: Its value is 98.1%.

Question: And the “intact (%) under 10 mM GSH at 2 μM” value ([1]; 1 h, Data 3, 2 μM (below CMC))?
Answer: The value was 98%.

Question: And the “intact (%) under 10 mM GSH” value ([1]; 1 h, Data 3, 50 μM)?
Answer: The value was 97%.

Question: What about the “intact (%) under 10 mM GSH at 2 μM” value ([1]; 3 h, Data 1, 2 μM (below CMC)) of the same molecule?
Answer: Its value is 93.4%.

Question: And the “intact (%) under 10 mM GSH” value ([1]; 3 h, Data 1, 50 μM)?
Answer: Its value is 95.9241%.

Question: And the “intact (%) under 10 mM GSH at 2 μM” value ([1]; 3 h, Data 2, 2 μM (below CMC))?
Answer: Its value is 94.4%.

Question: And the “intact (%) under 10 mM GSH” value ([1]; 3 h, Data 2, 50 μM)?
Answer: Its value is 96.1928%.

Question: What about the “intact (%) under 10 mM GSH at 2 μM” value ([1]; 3 h, Data 3, 2 μM (below CMC)) of the same molecule?
Answer: The value was 94.5%.

Question: And the “intact (%) under 10 mM GSH” value ([1]; 3 h, Data 3, 50 μM)?
Answer: Its value is 97.3114%.

Question: What about the “intact (%) under 10 mM GSH at 2 μM” value ([1]; 5 h, Data 1, 2 μM (below CMC)) of the same molecule?
Answer: Its value is 94.7%.

Question: And the “intact (%) under 10 mM GSH at 2 μM” value ([1]; 5 h, Data 2, 2 μM (below CMC))?
Answer: Its value is 95%.

Question: And the “intact (%) under 10 mM GSH at 2 μM” value ([1]; 5 h, Data 3, 2 μM (below CMC))?
Answer: The value was 94.9%.

Question: What about the “intact (%) under 10 mM GSH at 2 μM” value ([1]; 8 h, Data 1, 2 μM (below CMC)) of the same molecule?
Answer: Its value is 95%.

Question: And the “intact (%) under 10 mM GSH” value ([1]; 8 h, Data 1, 50 μM)?
Answer: Its value is 93.681%.

Question: And the “intact (%) under 10 mM GSH at 2 μM” value ([1]; 8 h, Data 2, 2 μM (below CMC))?
Answer: Its value is 95.7%.

Question: And the “intact (%) under 10 mM GSH” value ([1]; 8 h, Data 2, 50 μM)?
Answer: The value was 93.4607%.

Question: And the “intact (%) under 10 mM GSH at 2 μM” value ([1]; 8 h, Data 3, 2 μM (below CMC))?
Answer: The value was 96%.

Question: And the “intact (%) under 10 mM GSH” value ([1]; 8 h, Data 3, 50 μM)?
Answer: The value was 95.7%.

Question: What about the “remained intact with 10 mM GSH at 2 μM” value ([1]; 12 h, 2 μM (below CMC), HPLC–MS 520 nm, mean of n = 3) of the same molecule?
Answer: The value was 95%.

Question: What about the “remained intact with 10 mM GSH” value ([1]; 12 h, 50 μM, HPLC–MS peak area 520 nm, mean of n = 3) of the same molecule?
Answer: Its value is 96%.

Question: And the “intact (%) under 10 mM GSH at 2 μM” value ([1]; 12 h, Data 1, 2 μM (below CMC))?
Answer: Its value is 96%.

Question: And the “intact (%) under 10 mM GSH” value ([1]; 12 h, Data 1, 50 μM)?
Answer: The value was 94.9%.

Question: And the “intact (%) under 10 mM GSH at 2 μM” value ([1]; 12 h, Data 2, 2 μM (below CMC))?
Answer: Its value is 95.4%.

Question: What about the “intact (%) under 10 mM GSH” value ([1]; 12 h, Data 2, 50 μM) of the same molecule?
Answer: The value was 97.6967%.

Question: And the “intact (%) under 10 mM GSH at 2 μM” value ([1]; 12 h, Data 3, 2 μM (below CMC))?
Answer: The value was 97%.

Question: What about the “intact (%) under 10 mM GSH” value ([1]; 12 h, Data 3, 50 μM) of the same molecule?
Answer: Its value is 96.3405%.

Question: And the remaining at 5 h, 50 μM (Stability in FBS (serum); bovine, serum, 5 h, 37 °C, 50 μM in 50% FBS/PBS (10% DMSO), HPLC–MS peak area 520 nm, n = 3, read-out: intact in serum)?
Answer: The remaining at 5 h, 50 μM was 80%.

Question: And the remaining at 1 h, 50 μM (Stability in FBS (serum); bovine, serum, Data 1)?
Answer: The remaining at 1 h, 50 μM was 97%.

Question: And the remaining at 1 h, 50 μM (Stability in FBS (serum); bovine, serum, Data 3)?
Answer: Its remaining at 1 h, 50 μM is 93%.

Question: And the remaining at 2 h, 50 μM (Stability in FBS (serum); bovine, serum, Data 1)?
Answer: The remaining at 2 h, 50 μM was 88%.

Question: And the remaining at 2 h, 50 μM (Stability in FBS (serum); bovine, serum, Data 3)?
Answer: Its remaining at 2 h, 50 μM is 89%.

Question: What about the remaining at 3 h, 50 μM (Stability in FBS (serum); bovine, serum, Data 1) of the same molecule?
Answer: Its remaining at 3 h, 50 μM is 86%.

Question: And the remaining at 3 h, 50 μM (Stability in FBS (serum); bovine, serum, Data 2)?
Answer: Its remaining at 3 h, 50 μM is 82%.

Question: What about the remaining at 3 h, 50 μM (Stability in FBS (serum); bovine, serum, Data 3) of the same molecule?
Answer: The remaining at 3 h, 50 μM was 84%.

Question: And the “RGD-Dox (%)” value (Stability in FBS (serum); 0 h, Data 2)?
Answer: Its value is 100%.

Question: And the “RGD-Dox (%)” value (Stability in FBS (serum); 0 h, Data 3)?
Answer: The value was 100%.

Question: What about the “RGD-Dox (%)” value (Stability in FBS (serum); 5 h, Data 1) of the same molecule?
Answer: Its value is 80%.

Question: What about the “RGD-Dox (%)” value (Stability in FBS (serum); 5 h, Data 2) of the same molecule?
Answer: Its value is 77%.

Question: What about the “RGD-Dox (%)” value (Stability in FBS (serum); 5 h, Data 3) of the same molecule?
Answer: The value was 81%.

Question: And the “cellular fluorescence (uptake) after blocking with unmodified RGD” value (B16F10 cells [2])?
Answer: Its value is “negligible fluorescence”.

Question: And the “cellular uptake of RGD-Dox (flow cytometry)” value (shortened to “cellular uptake of RGD-Dox”) (B16F10 cells [3]; 0.5 h, Data 1)?
Answer: Its value is 4477.

Question: What about the “cellular uptake of RGD-Dox” value (B16F10 cells [3]; 0.5 h, Data 3) of the same molecule?
Answer: The value was 4327.

Question: What about the “cellular uptake of RGD-Dox” value (B16F10 cells [3]; 1 h, Data 3) of the same molecule?
Answer: The value was 6221.

Question: What about the “cellular uptake of RGD-Dox” value (B16F10 cells [3]; 2 h, Data 1) of the same molecule?
Answer: Its value is 10116.

Question: What about the “cellular uptake of RGD-Dox” value (B16F10 cells [3]; 3 h, Data 3) of the same molecule?
Answer: The value was 12247.

Question: And the “cellular uptake of RGD-Dox” value (B16F10 cells [3]; 4 h, Data 3)?
Answer: Its value is 12044.

Question: And the “cellular uptake over time (flow cytometry)” value (B16F10 cells [3]; B16F10, 10 μM, 37 °C, 0.5–6 h, 488/610 nm)?
Answer: The value was “rapid increase observed within the first 2 hours, followed by a plateau and saturation thereafter; also recorded: high cellular uptake after 2 h”.

Source: paper PMC10987521, “An all-in-one tetrazine reagent for cysteine-selective labeling and bioorthogonal activable prodrug construction” (Nature Communications, 2024)
